Laboratory results as given in patent US20210246166A1 (Bayer, published 2021).
Bridge positions count the residues as written; N and C are the ends. Square brackets hold non-standard residues; d marks the D form. Ends that are not written are not given here. Oic = O=C(O)[C@@H]1C[C@@H]2CCCC[C@@H]2N1; Phe(2-Br) = N[C@@H](Cc1ccccc1Br)C(=O)O; tBuAla = CC(C)(C)C[C@H](N)C(=O)O; Pen = CC(C)(S)[C@H](N)C(=O)O; NMeC = CN[C@@H](CS)C(=O)O

T1: recombinant rat MASP1 active protease (amino acids 302-704, C-terminal His Tag) (rat, UniProt Q8CHN8 302-704)
T1 sequence: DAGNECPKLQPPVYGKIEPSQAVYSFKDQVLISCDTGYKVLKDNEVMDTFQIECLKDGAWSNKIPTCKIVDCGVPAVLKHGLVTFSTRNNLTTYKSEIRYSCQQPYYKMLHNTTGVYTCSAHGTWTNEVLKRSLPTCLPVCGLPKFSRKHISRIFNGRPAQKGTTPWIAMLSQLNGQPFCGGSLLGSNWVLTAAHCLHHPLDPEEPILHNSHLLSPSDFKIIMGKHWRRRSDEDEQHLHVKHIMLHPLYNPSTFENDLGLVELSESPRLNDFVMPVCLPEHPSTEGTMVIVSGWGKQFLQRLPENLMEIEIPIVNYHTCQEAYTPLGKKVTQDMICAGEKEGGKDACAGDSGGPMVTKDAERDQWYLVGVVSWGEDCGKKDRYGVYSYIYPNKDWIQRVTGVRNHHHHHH

B1: Example 103: SIC+SRS-((tBu)A)-PPI-((N-Me)C)+I-NH2 (peptide)
peptide: SICSRS[tBuAla]PPI[NMeC]I-NH2
modifications: disulfide 3-11; N-terminus assumed
SMILES: CC[C@H](C)[C@H](NC(=O)[C@@H]1CSSC[C@H](NC(=O)[C@@H](NC(=O)[C@@H](N)CO)[C@@H](C)CC)C(=O)N[C@@H](CO)C(=O)N[C@@H](CCCNC(=N)N)C(=O)N[C@@H](CO)C(=O)N[C@@H](CC(C)(C)C)C(=O)N2CCC[C@H]2C(=O)N2CCC[C@H]2C(=O)N[C@@H]([C@@H](C)CC)C(=O)N1C)C(N)=O
B2: Example 104: AIC+SRS-((2-Bromo)F)-PPI-(Pen)+IPD-NH2 (peptide)
peptide: AICSRS[Phe(2-Br)]PPI[Pen]IPD-NH2
modifications: disulfide 3-11; N-terminus assumed
SMILES: CC[C@H](C)[C@H](NC(=O)[C@H](C)N)C(=O)N[C@H]1CSSC(C)(C)[C@@H](C(=O)N[C@H](C(=O)N2CCC[C@H]2C(=O)N[C@@H](CC(=O)O)C(N)=O)[C@@H](C)CC)NC(=O)[C@H]([C@@H](C)CC)NC(=O)[C@@H]2CCCN2C(=O)[C@@H]2CCCN2C(=O)[C@H](Cc2ccccc2Br)NC(=O)[C@H](CO)NC(=O)[C@H](CCCNC(=N)N)NC(=O)[C@H](CO)NC1=O
B3: Example 102: AIC+SRSLP-(rel-(1R,3R,5R,6R)-6-(Trifluoromethyl)-2-azabicyclo[3.1.0]hexane-3-carboxylic acid)-IC+IPD-NH2 (peptide)
peptide: AICSRSLP[rel‑(1R,3R,5R,6R)‑6‑(Trifluoromethyl)‑2‑azabicyclo(3.1.0)hexane‑3‑carboxylic acid]ICIPD-NH2
modifications: disulfide 3-11
B4: Example 99: AIC+SRS-((tBu)A)-P-(Oic)-IC+I-NH2 (peptide)
peptide: AICSRS[tBuAla]P[Oic]ICI-NH2
modifications: disulfide 3-11; N-terminus assumed
SMILES: CC[C@H](C)[C@H](NC(=O)[C@@H]1CSSC[C@H](NC(=O)[C@@H](NC(=O)[C@H](C)N)[C@@H](C)CC)C(=O)N[C@@H](CO)C(=O)N[C@@H](CCCNC(=N)N)C(=O)N[C@@H](CO)C(=O)N[C@@H](CC(C)(C)C)C(=O)N2CCC[C@H]2C(=O)N2[C@@H](C[C@@H]3CCCC[C@@H]32)C(=O)N[C@@H]([C@@H](C)CC)C(=O)N1)C(N)=O
B5: Example 108: AIC+SRS-((tBu)A)-P-(Oic)-I-(Pen)+IPD-NH2 (peptide)
peptide: AICSRS[tBuAla]P[Oic]I[Pen]IPD-NH2
modifications: disulfide 3-11; N-terminus assumed
SMILES: CC[C@H](C)[C@H](NC(=O)[C@H](C)N)C(=O)N[C@H]1CSSC(C)(C)[C@@H](C(=O)N[C@H](C(=O)N2CCC[C@H]2C(=O)N[C@@H](CC(=O)O)C(N)=O)[C@@H](C)CC)NC(=O)[C@H]([C@@H](C)CC)NC(=O)[C@@H]2C[C@@H]3CCCC[C@@H]3N2C(=O)[C@@H]2CCCN2C(=O)[C@H](CC(C)(C)C)NC(=O)[C@H](CO)NC(=O)[C@H](CCCNC(=N)N)NC(=O)[C@H](CO)NC1=O
B6: Example 123: AIC+SRSLP-(Oic)-I-((N-Me)C)+IP-NH2 (peptide)
peptide: AICSRSLP[Oic]I[NMeC]IP-NH2
modifications: disulfide 3-11; N-terminus assumed
SMILES: CC[C@H](C)[C@H](NC(=O)[C@H](C)N)C(=O)N[C@H]1CSSC[C@@H](C(=O)N[C@H](C(=O)N2CCC[C@H]2C(N)=O)[C@@H](C)CC)N(C)C(=O)[C@H]([C@@H](C)CC)NC(=O)[C@@H]2C[C@@H]3CCCC[C@@H]3N2C(=O)[C@@H]2CCCN2C(=O)[C@H](CC(C)C)NC(=O)[C@H](CO)NC(=O)[C@H](CCCNC(=N)N)NC(=O)[C@H](CO)NC1=O
B7: Example 98: AIC+SRS-((tBu)A)-PPI-(Pen)+IPD-NH2 (peptide)
peptide: AICSRS[tBuAla]PPI[Pen]IPD-NH2
modifications: disulfide 3-11; N-terminus assumed
SMILES: CC[C@H](C)[C@H](NC(=O)[C@H](C)N)C(=O)N[C@H]1CSSC(C)(C)[C@@H](C(=O)N[C@H](C(=O)N2CCC[C@H]2C(=O)N[C@@H](CC(=O)O)C(N)=O)[C@@H](C)CC)NC(=O)[C@H]([C@@H](C)CC)NC(=O)[C@@H]2CCCN2C(=O)[C@@H]2CCCN2C(=O)[C@H](CC(C)(C)C)NC(=O)[C@H](CO)NC(=O)[C@H](CCCNC(=N)N)NC(=O)[C@H](CO)NC1=O

target: T1, recombinant rat MASP1 active protease …; experiment: cell-based or functional assay

B1 and B2 are within 1.5-fold of each other in “rat MASP1 IC50” value: 110 nM for the first, 77 nM for the second.

Compared with B3, B4 is 1.6-fold higher in “rat MASP1 IC50” value: 140 nM for the first, 220 nM for the second.

Going from B5 to B6, the “rat MASP1 IC50” value rises from 11 nM to 59 nM (5.4-fold).

With B7 the “rat MASP1 IC50” value was 17 nM.
